Common to all, as to assay: HPLC assay of 7-O-glucoside formation
Common to all, as to type: biochemical, Camellia sinensis
Holding throughout (settings): 2.5 mM UDP-glucose, pH 8.0, 40°C

The subject of data set [1] is T1, O=c1cc(-c2ccc(O)c(O)c2)oc2cc(O)cc(O)c12.
T1 construct: Ni-TED purified (methods say amylose resin)

Data set [2] deals with T2, O=c1c(O)c(-c2ccc(O)c(O)c2)oc2cc(O)cc(O)c12.
T2 construct: Ni-TED purified (methods say amylose resin)

Data set [3] relates to T3, O=c1c(O)c(-c2ccc(O)cc2)oc2cc(O)cc(O)c12.
T3 construct: Ni-TED purified (methods say amylose resin)

For data set [4], the system named is T4, O=c1cc(-c2ccc(O)cc2)oc2cc(O)cc(O)c12.
T4 construct: Ni-TED purified (methods say amylose resin)

By Km is commonly meant the concentration of substrate that gives half-maximal velocity. As to “rCsUGT89A2 (CsUGT89A2, LOC114303213) (Camellia sinensis var. sinensis)”, the Michaelis constant (Km) was found to be 76.4 µM in data set [1], 106.0 µM in data set [2], 164.5 µM in data set [3] and 46.3 µM in data set [4].

(Values after publication PMC12577854, “CsUGT89A2 enhances tea plant resistance to Toxoptera aurantia by mediating flavonoid glycosides biosynthesis” (Horticulture Research, 2025).)
